Data as given in the supplement of paper PMC10065799, “High-throughput profiling of sequence recognition by tyrosine kinases and SH2 domains using bacterial peptide display” (eLife, 2023).

Assays:
[1] = test system: AncSZ; assay: phosphorylation enrichment, bacterial display (enrichment ratio); higher = better substrate or ligand; peptides without Tyr show the background
[2] = target: EPHB1 (UniProt P54762); assay: as above
[3] = target: EPHB2 (UniProt P29323); assay: as above
[4] = target: FGFR1 (UniProt P11362); assay: as above
[5] = target: FGFR3 (UniProt P22607); assay: as above
Sequence of FGFR3 (P22607 whole entry, looked up): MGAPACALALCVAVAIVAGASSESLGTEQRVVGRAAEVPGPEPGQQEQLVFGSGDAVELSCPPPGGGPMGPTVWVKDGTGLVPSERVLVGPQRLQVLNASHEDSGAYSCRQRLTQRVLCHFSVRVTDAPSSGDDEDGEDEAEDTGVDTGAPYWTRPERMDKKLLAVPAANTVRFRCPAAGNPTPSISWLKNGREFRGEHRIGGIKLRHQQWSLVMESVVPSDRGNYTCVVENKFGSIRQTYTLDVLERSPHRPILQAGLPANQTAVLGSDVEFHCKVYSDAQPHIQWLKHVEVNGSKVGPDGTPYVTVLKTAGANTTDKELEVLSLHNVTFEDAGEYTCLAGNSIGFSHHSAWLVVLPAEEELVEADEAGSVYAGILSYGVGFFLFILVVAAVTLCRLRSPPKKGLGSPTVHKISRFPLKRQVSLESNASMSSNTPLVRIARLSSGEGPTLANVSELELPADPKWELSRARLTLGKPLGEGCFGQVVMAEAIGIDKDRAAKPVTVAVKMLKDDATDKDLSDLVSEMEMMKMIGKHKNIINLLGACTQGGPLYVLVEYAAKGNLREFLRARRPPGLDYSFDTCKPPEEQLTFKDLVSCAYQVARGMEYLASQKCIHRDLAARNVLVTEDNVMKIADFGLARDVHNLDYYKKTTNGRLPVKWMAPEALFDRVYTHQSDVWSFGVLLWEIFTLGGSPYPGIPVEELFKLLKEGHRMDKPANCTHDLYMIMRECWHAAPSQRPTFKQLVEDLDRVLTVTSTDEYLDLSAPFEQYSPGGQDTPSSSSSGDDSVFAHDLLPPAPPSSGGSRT

[6] = test system: Fer (mouse); assay: as above
[7] = target: Fes (UniProt P07332); assay: as above
Sequence of Fes (P07332 whole entry, looked up): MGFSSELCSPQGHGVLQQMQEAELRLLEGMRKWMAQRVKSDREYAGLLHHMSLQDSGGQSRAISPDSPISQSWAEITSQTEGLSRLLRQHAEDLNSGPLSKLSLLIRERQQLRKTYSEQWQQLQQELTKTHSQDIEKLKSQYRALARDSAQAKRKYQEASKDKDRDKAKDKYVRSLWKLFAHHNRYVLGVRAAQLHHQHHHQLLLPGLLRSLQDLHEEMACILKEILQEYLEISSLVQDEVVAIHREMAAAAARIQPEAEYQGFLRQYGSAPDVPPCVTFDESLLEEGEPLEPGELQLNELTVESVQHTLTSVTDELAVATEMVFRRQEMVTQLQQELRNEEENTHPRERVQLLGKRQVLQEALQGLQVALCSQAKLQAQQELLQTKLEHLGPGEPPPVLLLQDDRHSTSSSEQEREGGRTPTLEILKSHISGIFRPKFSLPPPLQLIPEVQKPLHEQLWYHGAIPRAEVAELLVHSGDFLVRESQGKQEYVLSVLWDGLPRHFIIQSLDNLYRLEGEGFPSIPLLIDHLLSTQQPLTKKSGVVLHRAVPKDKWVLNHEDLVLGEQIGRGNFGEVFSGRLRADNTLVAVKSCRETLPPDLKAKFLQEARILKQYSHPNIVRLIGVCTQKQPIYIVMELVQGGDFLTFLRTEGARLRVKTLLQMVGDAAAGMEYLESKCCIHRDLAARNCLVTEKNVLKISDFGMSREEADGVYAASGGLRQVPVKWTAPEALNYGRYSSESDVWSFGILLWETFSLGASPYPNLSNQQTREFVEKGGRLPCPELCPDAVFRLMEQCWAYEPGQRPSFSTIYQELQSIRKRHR

[8] = target: Fyn (UniProt P06241); assay: as above
Sequence of Fyn (P06241 whole entry, looked up): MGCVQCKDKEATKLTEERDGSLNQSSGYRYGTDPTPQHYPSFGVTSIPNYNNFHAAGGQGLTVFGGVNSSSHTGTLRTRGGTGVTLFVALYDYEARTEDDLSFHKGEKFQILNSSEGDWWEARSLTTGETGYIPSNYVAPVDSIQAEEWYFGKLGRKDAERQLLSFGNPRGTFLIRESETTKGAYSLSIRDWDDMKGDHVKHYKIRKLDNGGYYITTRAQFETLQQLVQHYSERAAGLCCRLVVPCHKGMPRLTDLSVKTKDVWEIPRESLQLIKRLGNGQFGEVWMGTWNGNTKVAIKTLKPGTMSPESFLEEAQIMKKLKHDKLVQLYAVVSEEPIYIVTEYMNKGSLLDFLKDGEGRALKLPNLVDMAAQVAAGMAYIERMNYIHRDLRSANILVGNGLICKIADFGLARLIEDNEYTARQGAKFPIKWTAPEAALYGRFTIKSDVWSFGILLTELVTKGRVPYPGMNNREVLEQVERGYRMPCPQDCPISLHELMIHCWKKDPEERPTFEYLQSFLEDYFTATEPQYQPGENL

[9] = target: Hck (UniProt P08631); assay: as above
Sequence of Hck (P08631 whole entry, looked up): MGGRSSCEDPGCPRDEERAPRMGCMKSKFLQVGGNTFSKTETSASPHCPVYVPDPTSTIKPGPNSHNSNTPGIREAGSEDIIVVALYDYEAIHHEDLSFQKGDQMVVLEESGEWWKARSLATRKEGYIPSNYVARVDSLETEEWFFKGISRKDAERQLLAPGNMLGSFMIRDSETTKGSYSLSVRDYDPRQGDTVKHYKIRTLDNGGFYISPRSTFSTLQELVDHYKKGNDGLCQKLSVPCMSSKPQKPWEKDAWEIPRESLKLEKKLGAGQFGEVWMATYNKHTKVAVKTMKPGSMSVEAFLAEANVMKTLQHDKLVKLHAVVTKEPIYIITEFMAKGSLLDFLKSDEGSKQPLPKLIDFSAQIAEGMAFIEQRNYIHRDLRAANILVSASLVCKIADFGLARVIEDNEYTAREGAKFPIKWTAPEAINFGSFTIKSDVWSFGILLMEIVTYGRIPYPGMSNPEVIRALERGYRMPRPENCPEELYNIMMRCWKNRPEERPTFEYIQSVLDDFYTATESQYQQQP

[10] = target: Jak2 (UniProt O60674); assay: as above
Sequence of Jak2 (O60674 whole entry, looked up): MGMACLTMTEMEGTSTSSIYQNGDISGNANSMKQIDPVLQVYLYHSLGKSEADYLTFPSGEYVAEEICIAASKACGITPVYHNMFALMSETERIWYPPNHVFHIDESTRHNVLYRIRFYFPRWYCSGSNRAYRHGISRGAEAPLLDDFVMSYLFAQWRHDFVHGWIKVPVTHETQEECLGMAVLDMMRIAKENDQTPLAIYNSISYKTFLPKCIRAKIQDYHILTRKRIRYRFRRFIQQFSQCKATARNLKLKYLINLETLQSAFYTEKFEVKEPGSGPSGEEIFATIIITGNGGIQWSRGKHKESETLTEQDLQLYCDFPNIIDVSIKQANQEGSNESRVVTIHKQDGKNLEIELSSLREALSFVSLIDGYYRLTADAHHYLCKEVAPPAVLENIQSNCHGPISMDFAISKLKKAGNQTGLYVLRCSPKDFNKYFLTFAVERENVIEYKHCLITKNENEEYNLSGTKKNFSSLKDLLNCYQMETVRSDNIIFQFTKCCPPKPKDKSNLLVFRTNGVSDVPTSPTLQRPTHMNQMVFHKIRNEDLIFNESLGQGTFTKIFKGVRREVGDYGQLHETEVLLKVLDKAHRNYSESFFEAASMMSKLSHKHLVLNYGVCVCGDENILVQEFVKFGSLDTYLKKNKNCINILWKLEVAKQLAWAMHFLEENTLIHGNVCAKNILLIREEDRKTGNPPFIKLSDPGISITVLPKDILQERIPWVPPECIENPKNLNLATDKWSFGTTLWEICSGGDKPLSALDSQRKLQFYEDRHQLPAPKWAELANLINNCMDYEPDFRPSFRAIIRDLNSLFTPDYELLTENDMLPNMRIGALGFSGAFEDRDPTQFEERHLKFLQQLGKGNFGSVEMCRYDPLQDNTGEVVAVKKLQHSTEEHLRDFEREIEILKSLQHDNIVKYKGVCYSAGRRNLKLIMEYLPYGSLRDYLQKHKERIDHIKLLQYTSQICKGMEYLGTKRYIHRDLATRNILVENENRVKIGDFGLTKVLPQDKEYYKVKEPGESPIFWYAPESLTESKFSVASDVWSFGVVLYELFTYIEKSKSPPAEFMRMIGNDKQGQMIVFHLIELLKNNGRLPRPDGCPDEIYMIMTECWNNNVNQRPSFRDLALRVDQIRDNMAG

[11] = target: MERTK (UniProt Q12866); assay: as above
Sequence of MERTK (Q12866 whole entry, looked up): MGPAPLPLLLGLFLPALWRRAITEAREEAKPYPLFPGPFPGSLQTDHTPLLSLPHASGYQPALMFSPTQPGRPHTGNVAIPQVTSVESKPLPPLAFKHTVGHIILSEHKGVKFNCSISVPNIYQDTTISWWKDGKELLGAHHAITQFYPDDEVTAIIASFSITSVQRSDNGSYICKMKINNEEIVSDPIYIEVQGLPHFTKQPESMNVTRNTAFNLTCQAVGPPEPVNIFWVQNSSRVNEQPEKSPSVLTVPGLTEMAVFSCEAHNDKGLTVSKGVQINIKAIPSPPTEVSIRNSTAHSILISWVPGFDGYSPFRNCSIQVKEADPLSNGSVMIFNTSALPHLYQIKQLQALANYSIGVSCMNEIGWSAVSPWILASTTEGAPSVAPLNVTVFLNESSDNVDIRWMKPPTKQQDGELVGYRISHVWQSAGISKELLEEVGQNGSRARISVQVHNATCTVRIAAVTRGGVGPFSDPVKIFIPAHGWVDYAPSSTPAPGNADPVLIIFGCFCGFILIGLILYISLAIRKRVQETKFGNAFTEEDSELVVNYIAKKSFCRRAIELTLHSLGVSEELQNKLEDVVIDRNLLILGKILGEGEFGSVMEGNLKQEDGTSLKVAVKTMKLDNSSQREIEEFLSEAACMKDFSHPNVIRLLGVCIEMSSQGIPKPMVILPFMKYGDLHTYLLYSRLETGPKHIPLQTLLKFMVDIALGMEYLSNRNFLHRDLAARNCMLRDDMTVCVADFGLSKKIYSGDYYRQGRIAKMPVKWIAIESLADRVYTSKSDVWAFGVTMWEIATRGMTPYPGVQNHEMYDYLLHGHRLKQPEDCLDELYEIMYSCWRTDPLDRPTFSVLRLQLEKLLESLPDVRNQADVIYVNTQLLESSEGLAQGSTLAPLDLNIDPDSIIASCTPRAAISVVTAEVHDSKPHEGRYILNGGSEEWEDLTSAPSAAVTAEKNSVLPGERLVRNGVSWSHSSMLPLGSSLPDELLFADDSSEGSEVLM

[12] = test system: c-Abl (mouse); assay: as above
[13] = test system: c-Src; assay: as above
[14] = target: Grb2 SH2 (UniProt P62993); assay: SH2 binding enrichment of the phosphorylated peptide, bacterial display (enrichment ratio); higher = better substrate or ligand; peptides without Tyr show the background
Sequence of Grb2 SH2 (P62993 whole entry, looked up): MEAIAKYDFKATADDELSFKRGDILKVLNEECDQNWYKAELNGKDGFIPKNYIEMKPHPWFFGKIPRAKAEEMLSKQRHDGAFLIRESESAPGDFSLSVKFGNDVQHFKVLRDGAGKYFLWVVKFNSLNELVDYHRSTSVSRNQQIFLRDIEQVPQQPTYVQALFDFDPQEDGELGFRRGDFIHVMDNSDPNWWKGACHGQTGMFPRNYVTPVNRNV

[15] = target: SHP2-C SH2; assay: as above
[16] = target: c-Src SH2; assay: as above
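Wherever SH2 binding enrichment of the phosphorylated peptide, bacterial display is given: peptide library displayed on the E. coli surface as eCPX fusions, selected cells deep-sequenced, score is each peptide's frequency after selection divided by its frequency in the input.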
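Wherever phosphorylation enrichment, bacterial display is given: 11-residue human phosphosite peptides and single-mutation variants displayed on the E. coli surface, counted by deep sequencing, each peptide's frequency after selection divided by its frequency in the unselected input library; frequency after pTyr selection over input frequency; kinase dosed for 20-30% of maximal phosphorylation in three min.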

Sequence	phosphorylation enrichment [1]	phosphorylation enrichment [2]	phosphorylation enrichment [3]	phosphorylation enrichment [4]	phosphorylation enrichment [5]	phosphorylation enrichment [6]	phosphorylation enrichment [7]	phosphorylation enrichment [8]	phosphorylation enrichment [9]	phosphorylation enrichment [10]	phosphorylation enrichment [11]	phosphorylation enrichment [12]	phosphorylation enrichment [13]	SH2 binding enrichment [14]	SH2 binding enrichment [15]	SH2 binding enrichment [16]
FGLPRYRWLTH [TSPAN12_Y143_YF]	1.01	0.526	0.692	0.529	0.468	0.446	0.858	0.552	0.526	0.687	0.585	0.616	0.448	0.584	0.657	0.609
FGSGNYNVFGN [HNRNPA2B1_Y300_D302V_YF]	0.575	0.481	0.476	0.483	0.434	0.338	0.508	0.396	0.423	0.449	0.406	0.328	0.412	0.766	0.805	0.682
FGTAQYCCRMG [LRRK2_Y2023_I2020T_YF]	0.663	0.598	8.12	0.56	0.517	0.499	0.693	0.463	0.518	0.515	1.79	1.28	0.403	0.978	0.863	0.772
FGVTLYPNSRE [MEP1A_Y472]	1.02	0.675	0.68	0.556	0.766	0.398	1.17	0.432	0.599	0.92	0.714	0.995	0.541	0.891	0.858	0.638
FIGCIYLFLTK [GARS1_Y414_R412C_YF]	0.803	0.251	0.49	0.458	0.573	0.456	0.772	0.399	0.485	0.792	0.415	0.748	0.314	1.86	1.71	1.33
FLTQHYDAKPQ [ANG_Y38]	0.732	0.637	0.581	1.14	0.58	0.658	0.741	0.583	0.67	0.869	0.557	0.613	0.609	0.902	0.64	0.481
FMLFQYLKQIE [RPAP3_Y569_D564Y_YF]	1.12	0.539	0.716	0.468	0.783	0.506	1.36	0.447	0.505	1.27	0.482	1.07	0.498	1.53	1.48	1.08
FNVLQYVVPKV [EIF3A_Y382_E386K]	0.832	1.09	0.607	1.1	1.02	0.348	0.797	0.465	0.386	2.2	1.41	9.24	0.383	1.31	2.18	0.964
FPHVIYARLWR [SMAD4_Y95]	0.917	3.11	1.16	0.567	0.648	0.539	0.85	5.08	5.38	0.751	1.5	10.1	5.17	0.767	0.61	0.425
FPLELYERVRI [PRKCG_Y312_M317I_YF]	1.34	1.66	1.1	0.498	0.652	3.28	1.29	0.48	1.18	1.39	0.453	0.739	0.528	0.854	0.775	0.567
FQKNVYSEELR [LMNA_Y211_I210V]	0.674	0.456	0.48	0.418	0.449	0.417	0.727	0.613	0.486	0.672	0.518	0.535	0.68	1.24	0.591	0.566
FQLENCCNGGG [INS_Y108_Y108C_YF]	0.896	0.509	0.586	0.442	0.523	0.564	0.944	0.445	0.504	0.85	0.516	0.546	0.467	0.772	0.444	0.537
FQQLFYLLQIN [IQGAP2_Y890_T894I_YF]	1.51	0.82	0.815	0.648	1.01	0.658	1.76	0.541	0.617	1.47	0.611	1.06	0.639	1.14	1.1	0.889
FQRLQYIKQLG [SAMHD1_Y146_R145Q]	0.715	0.92	0.705	0.451	0.517	0.453	0.854	0.374	0.418	0.934	0.404	0.665	0.476	0.867	0.666	0.422
FRAPGYREVVI [TNS2_Y673_YF]	0.52	0.466	0.422	0.502	0.446	0.325	0.618	0.399	0.416	0.55	0.467	0.525	0.409	0.942	1.13	0.667
FRPPYYHRNCM [HGD_Y334]	0.708	0.429	0.449	0.513	0.504	0.477	0.88	0.418	0.432	0.89	0.426	0.799	0.442	1.21	1.23	1.15
FRTGHYLCNAC [GATA1_Y223_D218Y_YF]	0.62	0.479	0.484	0.566	0.625	0.363	0.634	0.44	0.443	0.53	0.399	0.393	0.401	1.14	1.07	0.743

Sequence	phosphorylation enrichment [1]	phosphorylation enrichment [2]	phosphorylation enrichment [3]	phosphorylation enrichment [4]	phosphorylation enrichment [5]	phosphorylation enrichment [6]	phosphorylation enrichment [7]	phosphorylation enrichment [8]	phosphorylation enrichment [9]	phosphorylation enrichment [10]	phosphorylation enrichment [11]	phosphorylation enrichment [12]	phosphorylation enrichment [13]	SH2 binding enrichment [14]	SH2 binding enrichment [15]	SH2 binding enrichment [16]
FSALDYKIFYY [WDPCP_Y210_L205F]	1.38	0.928	0.588	1.23	1.18	0.529	1.45	0.613	0.473	1.4	0.462	1.2	0.763	1.22	1.17	1.27
FSAPNCCYRCG [PPP2CA_Y265_Y265C]	1	0.671	0.676	0.489	0.76	0.547	1.21	0.518	0.55	1.02	0.505	0.833	0.5	0.925	0.529	0.582
FSDPDYLAAVD [GLB1_Y154_S149F]	1.45	0.58	0.556	0.479	0.691	0.475	0.939	0.504	0.702	0.928	0.42	0.577	0.381	0.746	0.551	0.417
FSGKAYADEER [CRIM1_Y826]	0.895	0.565	0.571	0.694	0.566	0.486	1.03	0.463	0.499	0.837	0.395	0.786	0.496	1	0.748	0.515
FSLIHYAGIVV [MYH7_Y582_D587V]	1.13	0.652	0.59	0.482	0.777	0.729	1.37	0.532	0.568	1.3	0.45	1.04	0.621	1.01	2.77	0.689
FTRNFYVRAVL [CYBA_Y88_YF]	1.36	0.831	0.713	0.635	1.11	0.689	1.58	0.529	0.565	1.54	0.503	1.57	0.554	0.581	0.658	0.448
GASWRYGSGVS [NEU1_Y242]	0.637	0.512	0.432	0.531	0.617	0.428	0.782	0.479	0.505	0.566	0.413	0.506	0.42	0.728	0.721	0.461
GCCSWYRGWAP [TIMP3_Y195_Y191C]	0.944	0.563	0.565	1.38	0.966	3.84	0.967	0.651	0.784	0.705	0.459	0.59	3.1	1.56	1.14	1.24
GCKNHYDKDKP [THAP1_Y14_R13H]	0.583	0.396	0.521	0.555	0.562	0.521	1.02	0.423	0.411	0.616	0.504	0.736	0.445	1.11	0.928	0.845
GCVSKYSGVFS [TUBGCP6_Y1624]	0.815	0.433	0.458	0.321	0.51	0.403	0.964	0.357	0.411	0.81	0.514	0.619	0.463	0.83	0.906	0.596
GDEAIYATVAG [NRTKtide_2018]	1.59	12.1	15.5	3.87	3	13.4	2.64	10.7	9.26	0.803	9.16	22.1	7.59	1.01	0.812	0.612
GDEEDYFEIPG [EGFR_opt_F_2015]	2.75	0.571	0.723	4.57	5.08	0.5	1.22	0.504	0.532	1.21	0.532	0.78	0.628	0.875	0.632	0.706
GDEVEYMLVSF [GCLC_Y53]	2.31	0.665	0.829	3.97	3.39	2.43	1.1	0.841	1.15	0.976	0.473	0.677	1.16	0.821	0.701	0.407
GDNNIYVTKII [DLG1_Y349_S347N]	0.806	0.525	0.556	0.574	0.61	0.595	0.991	0.894	1.21	0.942	0.461	0.701	0.93	0.836	0.687	0.546
GDYYCYLAEVA [YWHAG_Y133_R132C]	5.32	13	14.7	13.5	12.3	5.61	1.64	4.95	4.66	6.33	7.27	5.22	4.14	0.851	0.862	0.681
GELQGYDIMEP [MSH2_Y863_S860L]	1.23	0.554	0.522	0.445	0.666	0.471	1.13	0.412	0.508	1.13	0.419	0.658	0.436	0.851	0.534	4.99
